Test results taken from publication PMC12783888.
* marks the point of attachment. AMC = Cc1cc(=O)oc2cc(N*)ccc12

Experiments:
[1] = target: SplA allelic variant A6 (Staphylococcus aureus) (UniProt Q2FFS9)
[2] = target: T1, SplA wildtype (S. aureus strain USA300 variant) (Staphylococcus aureus strain USA300) (UniProt Q2FFS9)
T1 sequence: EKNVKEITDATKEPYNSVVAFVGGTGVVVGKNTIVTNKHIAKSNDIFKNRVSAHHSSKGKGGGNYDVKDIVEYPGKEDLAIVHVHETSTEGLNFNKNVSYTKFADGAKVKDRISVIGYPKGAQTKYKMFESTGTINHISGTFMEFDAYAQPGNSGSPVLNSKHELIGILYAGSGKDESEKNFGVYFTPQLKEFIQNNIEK

[3] = target: SplA allelic variant A3 (Staphylococcus aureus) (UniProt Q2FFS9)
[4] = target: SplA allelic variant A5 (Staphylococcus aureus) (UniProt Q2FFS9)
[5] = target: SplA allelic variant A4 (Staphylococcus aureus) (UniProt Q2FFS9)
[6] = target: SplA allelic variant A1 (Staphylococcus aureus) (UniProt Q2FFS9)

Molecule | KM of Michaelis-Menten kinetics, cleavage of the fluorogenic substrate (AMC release) [1] | KM of Michaelis-Menten kinetics, cleavage of the fluorogenic substrate (AMC release) [2] | KM of Michaelis-Menten kinetics, cleavage of the fluorogenic substrate (AMC release) [3] | KM of Michaelis-Menten kinetics, cleavage of the fluorogenic substrate (AMC release) [4] | KM of Michaelis-Menten kinetics, cleavage of the fluorogenic substrate (AMC release) [5] | KM of Michaelis-Menten kinetics, cleavage of the fluorogenic substrate (AMC release) [6]
Ac-Tyr-Leu-Tyr-{AMC} | 109 µM | 49 µM | 39 µM | 35 µM | 65 µM | 54 µM
Ac-VWLY-{AMC} (SMILES CC(=O)N[C@H](C(=O)N[C@@H](Cc1c[nH]c2ccccc12)C(=O)N[C@@H](CC(C)C)C(=O)N[C@@H](Cc1ccc(O)cc1)C(=O)Nc1ccc2c(C)cc(=O)oc2c1)C(C)C) [Ac-VWLY-AMC] | 19 µM | 11 µM | 11 µM | 13 µM | 23 µM | 26 µM
